In PMC2685776 (Oncogene, 2009):
Values joined by “and” are separate entries in the source; they are usually repeats but may differ in a detail not shown here. Equal values may be shown once. Values belong to the substance of their own block, whether it stands above or below them.

Assays:
Kix = settings: ref Zor et al., 2002, cited from earlier work
[1] = molecular target: p53 TAD peptide 1-57 Hepta-(Ala) (human) (UniProt P04637); experiment: fluorescence polarisation
[2] = molecular target: p53 TAD peptide 10-57 Hepta-(Asp) (human) (UniProt P04637); experiment: fluorescence polarisation
CBP Kix = CBP Kix (UniProt Q92793); settings: cited from earlier work
UniProt Q92793, sequence (Q92793 587-666): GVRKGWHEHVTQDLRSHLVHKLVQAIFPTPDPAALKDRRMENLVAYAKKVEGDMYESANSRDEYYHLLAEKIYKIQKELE

CREB, sequence (P16220 whole entry): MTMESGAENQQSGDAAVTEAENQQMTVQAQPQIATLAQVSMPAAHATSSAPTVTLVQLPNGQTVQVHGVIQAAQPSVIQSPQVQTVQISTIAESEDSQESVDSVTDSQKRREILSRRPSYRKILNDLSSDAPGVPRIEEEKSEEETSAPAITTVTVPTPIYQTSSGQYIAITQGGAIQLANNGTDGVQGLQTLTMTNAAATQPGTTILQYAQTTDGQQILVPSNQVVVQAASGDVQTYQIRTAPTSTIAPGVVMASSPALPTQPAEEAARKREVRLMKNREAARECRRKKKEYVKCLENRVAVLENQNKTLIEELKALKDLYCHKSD

Substance: CREB: transcription factor CREB, phosphorylated on Ser133, binding Kix (literature)
Kd (Kix; read-out: KD, Kix, CREB phosphorylated at Ser133): 700 nM | fold tighter Kix binding upon phosphorylation of Ser133 (Kix): 150 fold and ~ 150 fold

Kd [1]: 560 nM | Kd [2]: 38 nM
Substance: p300 Taz1 domain (from UniProt Q09472 1-2414) (domain or fragment)

Substance: CREB (from UniProt P16220)
Kd (CBP Kix): 700 nM
